Source: article PMC5726920

Legend:
[1] = target: 10 kDa heat shock protein; assay: native MS
[2] = target: triosephosphate isomerase, isoform 2, initiator methionine removed; assay: native MS

Sequence of triosephosphate isomerase, isoform 2, initiator methionine removed (enzyme) (P60174 2-249): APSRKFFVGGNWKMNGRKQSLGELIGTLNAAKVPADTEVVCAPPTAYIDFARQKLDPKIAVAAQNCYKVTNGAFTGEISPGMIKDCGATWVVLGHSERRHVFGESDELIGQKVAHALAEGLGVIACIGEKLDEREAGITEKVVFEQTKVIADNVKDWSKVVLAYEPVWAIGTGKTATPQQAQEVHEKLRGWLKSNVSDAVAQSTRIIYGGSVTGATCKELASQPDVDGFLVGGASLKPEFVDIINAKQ

10 kDa heat shock protein (natural protein)
stoichiometry N [1]: 7

triosephosphate isomerase, isoform 2, initiator methionine removed (enzyme)
stoichiometry N [2]: 2
